These results are taken from the supplement of paper PMC10567573.

± gives the standard deviation.

This data set is described as follows: protein stability index of a GFP-peptide fusion (GPS, HEK-293T) (PSI 1-6); higher = more stable. The settings on record: c terminus: a fixed tail appended.
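Further: 24-mer peptide tiles fused after GFP, lentivirally expressed, FACS-sorted into six equal bins by GFP/DsRed ratio, decoded by Illumina sequencing, PSI is the read-weighted mean bin number.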

With AAAAAAPAPPPPAGGATAWGDLLG [SNAP91], the protein stability index amounted to 4.37 ± 0.17 (treatment: DMSO) and 4.42 ± 0.081 (treatment: MLN4924 1 uM, 8 h).

With AAFYKGYVPNMLGIIPYAGIDLAV [SLC25A25], the protein stability index came out at 2.78 ± 0.45 (treatment: DMSO) and 3.31 ± 0.57 (treatment: MLN4924 1 uM, 8 h).

For the sequence AAHAAQAHRERNEFPEDPEFEAVV [PI4K2A], the protein stability index by setting is: (treatment: DMSO) 5.29 ± 0.66; (treatment: MLN4924 1 uM, 8 h) 5.3 ± 0.28.

Regarding AALAVNTSILSRLPPEALTAPSGG [RNF208], the protein stability index was found to be 3.44 ± 0.24 (treatment: DMSO) and 3.45 ± 0.14 (treatment: MLN4924 1 uM, 8 h).

Regarding AALDACSGNDPFAPSEGSAEAAPE [SNAP91], the protein stability index runs as follows: (treatment: DMSO) 5.43 ± 0.25; (treatment: MLN4924 1 uM, 8 h) 5.46 ± 0.3.

Regarding AALHGLEETKKLANKYLVEDVLLL [KLHL14], the protein stability index by setting is: (treatment: DMSO) 2.42 ± 0.22; (treatment: MLN4924 1 uM, 8 h) 2.55 ± 0.56.

Turning to AAPGVDLTRVLAEMREQYEAMAEK [KRT15], the protein stability index is, setting by setting: (treatment: DMSO) 4.57 ± 0.32; (treatment: MLN4924 1 uM, 8 h) 4.35 ± 0.086.

In the case of AAPRTLAAHPPLPLLPPAMGTEPA [TBX6], the protein stability index is 4.61 ± 0.43 (treatment: DMSO) and 4.57 ± 0.29 (treatment: MLN4924 1 uM, 8 h).

On to AAQMMDIWVPIKIGALTYFAQADA [ACSBG2], for which the protein stability index runs as follows: (treatment: DMSO) 2.28 ± 0.69; (treatment: MLN4924 1 uM, 8 h) 2.85 ± 0.49.

Turning to AARSGDAAANKLFHYIPGTDILDL [PLEKHN1], the protein stability index runs as follows: (treatment: DMSO) 3.51 ± 0.39; (treatment: MLN4924 1 uM, 8 h) 3.35 ± 0.14.

As for ACTLTVFPPEETTPSPSRESPLSA [KLHL13], the protein stability index runs as follows: (treatment: DMSO) 4.35 ± 0.32; (treatment: MLN4924 1 uM, 8 h) 4.45 ± 0.15.

As for ADTEEPTKDPDVAFHGLSLGLSLT [PSD2], the protein stability index amounted to 4.37 ± 0.25 (treatment: DMSO) and 4.44 ± 0.27 (treatment: MLN4924 1 uM, 8 h).

For AEKDRRLKKKHQLLEDARRKGMPF [PPFIA4], the protein stability index is 4.05 ± 0.29 (treatment: DMSO) and 4.29 ± 0.16 (treatment: MLN4924 1 uM, 8 h).

AELAETIVYARVLALHPEAPGLYN [CCDC3]: the protein stability index came out at 1.99 ± 0.077 (treatment: DMSO) and 2.55 ± 0.2 (treatment: MLN4924 1 uM, 8 h).

In the case of AELLLAARLLGALAARSGAAYGPG [TSPAN10], the protein stability index reads like this: (treatment: DMSO) 2.93 ± 0.069; (treatment: MLN4924 1 uM, 8 h) 2.77 ± 0.73.

Turning to AEMFRRKPLFCGNSEADQLGKIFD [CDK4], the protein stability index came out at 2.98 ± 0.17 (treatment: DMSO) and 3.06 ± 0.2 (treatment: MLN4924 1 uM, 8 h).

As for AEMNRGSNEWKTVVGGAMFFIGFT [COX4I1], the protein stability index runs as follows: (treatment: DMSO) 2.95 ± 0.91; (treatment: MLN4924 1 uM, 8 h) 3.18 ± 0.44.

For AERLTATGILLHPWLRQDPMPLAP [TRIB3], the protein stability index runs as follows: (treatment: DMSO) 2.78 ± 0.22; (treatment: MLN4924 1 uM, 8 h) 2.91 ± 0.18.

For the sequence AETDEHTGANTKKPEDTAEDLTAK [FAM9B], the protein stability index is, setting by setting: (treatment: DMSO) 5.74 ± 0.23; (treatment: MLN4924 1 uM, 8 h) 5.62 ± 0.12.

As for AGEPGHSPADYLRFQDLVLRMLEY [DYRK1B], the protein stability index is, setting by setting: (treatment: DMSO) 2.27 ± 0.38; (treatment: MLN4924 1 uM, 8 h) 2.33 ± 0.22.

In the case of AGGHPAQLGLGRGASTFKEEPQTV [JUNB], the protein stability index was 4.511 ± 0.035 (treatment: DMSO) and 4.58 ± 0.32 (treatment: MLN4924 1 uM, 8 h).

For AGIALYSHEDVCVFKCSVSRETEC [CARM1], the protein stability index was 3 ± 0.3 (treatment: DMSO) and 2.7 ± 0.4 (treatment: MLN4924 1 uM, 8 h).

As for AGPAGTGTPSLLRGKRGGHATNYR [EMID1], the protein stability index is, setting by setting: (treatment: DMSO) 4.72 ± 0.49; (treatment: MLN4924 1 uM, 8 h) 4.59 ± 0.22.

Regarding AGPYLLNGSYLELSSDRVANSSSE [ADAMTSL2], the protein stability index is, setting by setting: (treatment: DMSO) 4.09 ± 0.27; (treatment: MLN4924 1 uM, 8 h) 4.07 ± 0.17.

Consider AHVNTLHSGTKRDPKEDVFQQNHL [PHTF1], for which the protein stability index runs as follows: (treatment: DMSO) 4.31 ± 0.15; (treatment: MLN4924 1 uM, 8 h) 4.28 ± 0.18.

In the case of AIHVLGPIDFEESRFYEIHARARD [PCDHGC5], the protein stability index is 2.64 ± 0.45 (treatment: DMSO) and 3.01 ± 0.095 (treatment: MLN4924 1 uM, 8 h).

For the sequence AILVMHHSMKPHPAITATLLDFMC [INTS3], the protein stability index was found to be 2.91 ± 0.36 (treatment: DMSO) and 2.98 ± 0.47 (treatment: MLN4924 1 uM, 8 h).

For AISDQLLGAGSDLKDFTLNETVNS [ADAMTSL2], the protein stability index is, setting by setting: (treatment: DMSO) 4.32 ± 0.21; (treatment: MLN4924 1 uM, 8 h) 4.8 ± 0.42.

Consider AKAAALSTKTPAPCSEFMEPSSDP [SPAG8], for which the protein stability index reads like this: (treatment: DMSO) 5.1 ± 0.33; (treatment: MLN4924 1 uM, 8 h) 5.41 ± 0.19.

As for AKGGFSGCSAVLSGGSSSSFRAGS [KRT71], the protein stability index was found to be 3.17 ± 0.13 (treatment: DMSO) and 3.17 ± 0.24 (treatment: MLN4924 1 uM, 8 h).

Consider AKTIDTSPPVDLFATASAAVPVST [SNAP91], for which the protein stability index stood at 4.37 ± 0.1 (treatment: DMSO) and 4.32 ± 0.13 (treatment: MLN4924 1 uM, 8 h).

ALVCLLSCLLPSSEAKLYGRCELA [SPACA3] returned a protein stability index (treatment: DMSO) of 3.18 ± 0.42 and a protein stability index (treatment: MLN4924 1 uM, 8 h) of 3.04 ± 0.36.

ANTTPSGKSVSSSSSVETGPSVSE [SPATS1]: the protein stability index is 5.32 ± 0.23 (treatment: DMSO) and 5.31 ± 0.23 (treatment: MLN4924 1 uM, 8 h).

APAAPMVSKGAESSRSSEESSSDS [BRD3]: the protein stability index worked out at 5.59 ± 0.19 (treatment: DMSO) and 5.63 ± 0.18 (treatment: MLN4924 1 uM, 8 h).

Regarding APPPRDYTYRDYGHSSSRDDYPSR [RBMX], the protein stability index by setting is: (treatment: DMSO) 4.43 ± 0.21; (treatment: MLN4924 1 uM, 8 h) 4.32 ± 0.078.

Take APRLAVAVPAVTSADSQFSQTTQA [LYSMD4]: the protein stability index is, setting by setting: (treatment: DMSO) 4.76 ± 0.16; (treatment: MLN4924 1 uM, 8 h) 4.81 ± 0.19.
